Source: US20260041744

Target: cellular receptors (CIMPR) on normal and Pompe patient fibroblasts (UniProt P11717)
Sequence (P11717 41-2491): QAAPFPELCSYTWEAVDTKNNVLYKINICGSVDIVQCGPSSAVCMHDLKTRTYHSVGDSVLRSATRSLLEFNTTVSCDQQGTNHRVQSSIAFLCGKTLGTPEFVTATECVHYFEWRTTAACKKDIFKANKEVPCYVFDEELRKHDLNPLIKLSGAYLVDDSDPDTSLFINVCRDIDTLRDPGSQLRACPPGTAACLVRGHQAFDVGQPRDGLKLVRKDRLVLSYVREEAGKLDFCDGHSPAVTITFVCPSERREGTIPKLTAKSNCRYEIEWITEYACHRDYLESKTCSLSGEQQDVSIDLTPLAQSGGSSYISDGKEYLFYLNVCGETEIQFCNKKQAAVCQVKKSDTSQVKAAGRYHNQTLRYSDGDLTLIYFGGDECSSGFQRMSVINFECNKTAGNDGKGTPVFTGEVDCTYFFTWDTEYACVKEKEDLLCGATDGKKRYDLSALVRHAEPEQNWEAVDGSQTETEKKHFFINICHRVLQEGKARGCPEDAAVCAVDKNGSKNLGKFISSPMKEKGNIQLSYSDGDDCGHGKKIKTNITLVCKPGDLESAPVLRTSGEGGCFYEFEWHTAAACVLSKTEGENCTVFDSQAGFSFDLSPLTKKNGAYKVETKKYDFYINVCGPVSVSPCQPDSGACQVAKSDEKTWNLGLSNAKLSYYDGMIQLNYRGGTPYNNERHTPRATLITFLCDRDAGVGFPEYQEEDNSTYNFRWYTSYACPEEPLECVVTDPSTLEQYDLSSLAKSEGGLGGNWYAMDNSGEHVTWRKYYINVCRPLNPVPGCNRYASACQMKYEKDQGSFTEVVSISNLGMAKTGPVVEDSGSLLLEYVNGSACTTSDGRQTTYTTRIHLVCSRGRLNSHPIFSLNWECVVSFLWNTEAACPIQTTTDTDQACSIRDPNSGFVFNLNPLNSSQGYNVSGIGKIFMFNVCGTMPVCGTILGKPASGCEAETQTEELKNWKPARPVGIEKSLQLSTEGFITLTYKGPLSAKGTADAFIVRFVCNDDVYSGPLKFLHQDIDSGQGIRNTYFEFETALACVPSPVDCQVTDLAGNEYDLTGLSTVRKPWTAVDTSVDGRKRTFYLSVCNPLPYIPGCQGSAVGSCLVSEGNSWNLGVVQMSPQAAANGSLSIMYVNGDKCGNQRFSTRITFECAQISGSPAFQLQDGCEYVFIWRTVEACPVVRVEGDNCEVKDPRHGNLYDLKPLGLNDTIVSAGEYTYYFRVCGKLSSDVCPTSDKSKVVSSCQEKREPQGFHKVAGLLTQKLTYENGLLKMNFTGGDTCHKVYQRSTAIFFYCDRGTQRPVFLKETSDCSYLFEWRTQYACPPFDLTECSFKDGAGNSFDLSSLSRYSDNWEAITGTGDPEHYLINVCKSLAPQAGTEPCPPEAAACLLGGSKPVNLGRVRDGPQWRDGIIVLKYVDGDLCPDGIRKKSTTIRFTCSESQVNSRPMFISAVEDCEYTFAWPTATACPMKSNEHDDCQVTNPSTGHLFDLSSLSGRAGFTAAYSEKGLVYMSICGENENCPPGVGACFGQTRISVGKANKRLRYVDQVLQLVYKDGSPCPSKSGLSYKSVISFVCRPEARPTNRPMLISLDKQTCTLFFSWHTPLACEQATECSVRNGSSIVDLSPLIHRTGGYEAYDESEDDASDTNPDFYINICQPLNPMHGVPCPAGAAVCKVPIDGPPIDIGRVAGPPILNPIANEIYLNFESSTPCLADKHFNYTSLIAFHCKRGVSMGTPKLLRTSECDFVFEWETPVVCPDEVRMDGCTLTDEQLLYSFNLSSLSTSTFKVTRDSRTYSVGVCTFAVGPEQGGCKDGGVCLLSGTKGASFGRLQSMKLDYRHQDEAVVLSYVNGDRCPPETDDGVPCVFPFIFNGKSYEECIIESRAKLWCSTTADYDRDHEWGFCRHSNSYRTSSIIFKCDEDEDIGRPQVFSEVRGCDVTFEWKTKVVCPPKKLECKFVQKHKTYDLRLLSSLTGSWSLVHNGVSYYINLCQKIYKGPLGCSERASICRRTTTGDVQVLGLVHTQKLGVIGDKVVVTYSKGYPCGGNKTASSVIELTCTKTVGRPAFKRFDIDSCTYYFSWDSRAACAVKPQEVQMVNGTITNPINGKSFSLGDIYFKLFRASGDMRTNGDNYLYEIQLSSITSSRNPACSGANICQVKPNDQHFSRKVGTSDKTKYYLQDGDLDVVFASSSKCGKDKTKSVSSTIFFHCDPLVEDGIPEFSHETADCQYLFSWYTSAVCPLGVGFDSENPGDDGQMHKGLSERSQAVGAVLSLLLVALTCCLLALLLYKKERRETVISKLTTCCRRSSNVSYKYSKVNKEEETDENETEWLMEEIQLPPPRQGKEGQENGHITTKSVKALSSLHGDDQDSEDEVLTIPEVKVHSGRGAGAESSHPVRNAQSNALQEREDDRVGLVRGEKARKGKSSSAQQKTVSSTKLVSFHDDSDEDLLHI

Substance	stated: internalized; internalized GAA activity (nmol/mg protein/hr) in skeletal muscle myoblasts against rhGAA added (nM)	stated: internalized; internalized GAA activity (pmol 4-MU/mg/h), 4MU-α-Glc assay, Pompe patient fibroblasts, 20 nM rhGAA	stated: not internalized; internalized GAA activity (pmol 4-MU/mg/h), 4MU-α-Glc assay, Pompe patient fibroblasts, 20 nM rhGAA	stated: taken up; internalized GAA activity in CRL 2076 (normal fibroblasts)	stated: taken up; internalized GAA activity in PM25 (Pompe fibroblasts)
alglucosidase alfa (mock-treated control of Example 16)	Alglucosidase alfa curve rises slowly: about 150 near 30 nM, about 250 near 60 nM, about 390 at 125 nM, about 475 at 250 nM. It is still rising with no plateau and lies below ATB200 at every concentration	bar 'Alglucosidase alfa + Mock' lies a little below the 300 tick, clearly above untreated cells and well below the cipaglucosidase alfa + Mock bar	–	–	–
PAP-treated cipaglucosidase alfa (dephosphorylated cipaglucosidase alfa)	–	–	bar 'Cipaglucosidase alfa + PAP' is at about 0, at the level of 'Untreated Cells' and 'PAP Alone'	–	–
ATB200 rhGAA (recombinant human acid α-glucosidase produced from CHO cell line GA-ATB200)	ATB200 curve rises steeply from 0, to about 400 near 15 nM and about 540 near 30 nM, then flattens: about 630 near 60 nM, about 700 at 125 nM, about 740 at 250 nM	bar 'Cipaglucosidase alfa + Mock' is the highest, a little above the 900 tick; untreated cells are at 0	–	curve marked ATB200 rises steeply from about 0 to about 26 at about 10 nM and about 33 nmol/mg protein/hr at about 27 nM, then plateau of about 34-35 up to about 240 nM; with +M6P at about 240 nM (triangle) only about 5	curve marked ATB200 rises steeply from about 0 to about 30 at about 10 nM and about 36 at about 27 nM, then plateau of about 40 nmol/mg protein/hr at about 80 nM (point of about 45 at about 240 nM); with +M6P at about 245 nM (triangle) about 1
LUMIZYME® (alglucosidase alfa, conventional rhGAA product)	–	–	–	curve marked Alglucosidase Alfa rises slowly: about 8 at about 10 nM, about 16 at about 27 nM, about 23 at about 80 nM, about 35 nmol/mg protein/hr at about 240 nM, no clear plateau; with +M6P at about 240 nM (square) about 1	curve marked Alglucosidase Alfa rises slowly: about 7 at about 10 nM, about 13 at about 27 nM, about 27 at about 80 nM, about 37 nmol/mg protein/hr at about 240 nM, still rising; with +M6P at about 245 nM (square) about 3
